Data reported in the Human Domainome abundance scans (Beltran et al. 2025).
± gives the uncertainty stated by the source.

B1: Homeobox protein SIX3, residues 212 to 262; numbered along this chain, O95343 (parent)
chain: CFKERTRSLLREWYLQDPYPNPSKKRELAQATGLTPTQVGNWFKNRRQRDR

Variants of: B1
Test: abundance fitness (aPCA) (normalised: wild type 0, dead -1); higher = more abundant; growth selection in yeast, the domain comes from the species named
Details: Homo sapiens

In order of rising abundance fitness:
1. Y14D  -1.14 ± 0.31
2. D17H  -1.04 ± 0.23
3. L10W  -1.03 ± 0.14
4. L10V  -1.01 ± 0.17
5. D17Y  -1 ± 0.41
6. L10T  -0.974 ± 0.23
7. L10Q  -0.972 ± 0.15
8. L10G  -0.961 ± 0.16
9. Y14H  -0.951 ± 0.1
10. Y14T  -0.946 ± 0.062
11. L10R  -0.93 ± 0.077
12. D17I  -0.927 ± 0.38
13. D17R  -0.907 ± 0.13
14. Y14A  -0.896 ± 0.059
15. L10A  -0.895 ± 0.058
16. Y14E  -0.893 ± 0.1
17. Y14M  -0.891 ± 0.13
18. D17A  -0.89 ± 0.14
19. L10E  -0.886 ± 0.084
20. L10C  -0.88 ± 0.28
21. D17V  -0.878 ± 0.11
22. L10P  -0.872 ± 0.093
23. E12P  -0.872 ± 0.12
24. L10H  -0.868 ± 0.16
25. Y14R  -0.849 ± 0.075
26. D17T  -0.844 ± 0.061
27. E12C  -0.84 ± 0.2
28. Y14Q  -0.834 ± 0.17
29. D17G  -0.834 ± 0.067
30. Y14G  -0.833 ± 0.057
31. Y14L  -0.828 ± 0.056
32. L9D  -0.825 ± 0.13
33. L10F  -0.824 ± 0.2
34. Y14C  -0.822 ± 0.17
35. D17F  -0.82 ± 0.39
36. D17Q  -0.814 ± 0.18
37. Y14K  -0.81 ± 0.14
38. D17M  -0.81 ± 0.14
39. L9N  -0.8 ± 0.15
40. D17C  -0.78 ± 0.27
41. D17P  -0.753 ± 0.19
42. W13P  -0.747 ± 0.16
43. Y14I  -0.746 ± 0.076
44. Y14N  -0.734 ± 0.16
45. L9S  -0.733 ± 0.074
46. L9G  -0.726 ± 0.05
47. L10N  -0.724 ± 0.28
48. Q16P  -0.712 ± 0.29
49. Y14W  -0.711 ± 0.1
50. R7P  -0.702 ± 0.18
51. L9C  -0.694 ± 0.18
52. Y14P  -0.672 ± 0.13
53. Y14S  -0.667 ± 0.066
54. D17K  -0.665 ± 0.12
55. L10S  -0.647 ± 0.098
56. L9P  -0.644 ± 0.1
57. L9W  -0.632 ± 0.05
58. D17S  -0.627 ± 0.07
59. E12I  -0.618 ± 0.15
60. E12V  -0.608 ± 0.099
61. Q16D  -0.601 ± 0.38
62. D17N  -0.599 ± 0.097
63. L15S  -0.568 ± 0.32
64. Q16G  -0.564 ± 0.047
65. L10Y  -0.561 ± 0.36
66. L15W  -0.551 ± 0.35
67. W13F  -0.545 ± 0.2
68. W13D  -0.527 ± 0.12
69. R11P  -0.514 ± 0.15
70. L9F  -0.51 ± 0.22
71. L9E  -0.481 ± 0.066
72. E12F  -0.45 ± 0.16
73. L9A  -0.43 ± 0.064
74. E12L  -0.426 ± 0.06
75. R7F  -0.419 ± 0.3
76. L9H  -0.417 ± 0.16
77. R11Y  -0.408 ± 0.24
78. R7T  -0.403 ± 0.2
79. W13K  -0.399 ± 0.12
80. R11C  -0.392 ± 0.16
81. Q16Y  -0.382 ± 0.068
82. L10M  -0.381 ± 0.11
83. L9R  -0.369 ± 0.063
84. W13H  -0.338 ± 0.15
85. Q16W  -0.327 ± 0.096
86. E12K  -0.314 ± 0.12
87. L15M  -0.309 ± 0.2
88. R11G  -0.302 ± 0.054
89. Q16E  -0.302 ± 0.069
90. E12G  -0.3 ± 0.042
91. Y14F  -0.294 ± 0.091
92. E12T  -0.285 ± 0.056
93. Q16S  -0.285 ± 0.046
94. E12M  -0.282 ± 0.066
95. R7L  -0.272 ± 0.096
96. L9Q  -0.266 ± 0.067
97. R7G  -0.261 ± 0.075
98. R7D  -0.26 ± 0.18
99. E12A  -0.256 ± 0.075
100. Q16T  -0.249 ± 0.069
101. E12S  -0.236 ± 0.083
102. R11Q  -0.23 ± 0.09
103. R11H  -0.227 ± 0.13
104. L9K  -0.226 ± 0.073
105. P18A  -0.226 ± 0.049
106. R11D  -0.22 ± 0.058
107. L15V  -0.22 ± 0.24
108. Q16K  -0.212 ± 0.12
109. D17E  -0.204 ± 0.078
110. L9M  -0.199 ± 0.11
111. E12W  -0.185 ± 0.11
112. R7E  -0.181 ± 0.11
113. Q16H  -0.173 ± 0.14
114. W13I  -0.153 ± 0.13
115. R11V  -0.141 ± 0.053
116. W13L  -0.139 ± 0.076
117. L9T  -0.138 ± 0.054
118. R11K  -0.138 ± 0.093
119. R7Q  -0.137 ± 0.2
120. R11A  -0.131 ± 0.053
121. R7M  -0.128 ± 0.11
122. R11N  -0.111 ± 0.071
123. Q16F  -0.109 ± 0.099
124. Q16A  -0.106 ± 0.046
125. E12D  -0.098 ± 0.072
126. L9I  -0.095 ± 0.084
127. Q16N  -0.092 ± 0.13
128. R7W  -0.091 ± 0.12
129. L15E  -0.091 ± 0.16
130. E12Y  -0.09 ± 0.041
131. W13C  -0.08 ± 0.059
132. W13E  -0.078 ± 0.056
133. Q16R  -0.076 ± 0.054
134. W13V  -0.075 ± 0.052
135. L9V  -0.071 ± 0.052
136. R11W  -0.07 ± 0.063
137. W13S  -0.069 ± 0.079
138. W13T  -0.066 ± 0.072
139. R11F  -0.061 ± 0.073
140. R11E  -0.047 ± 0.085
141. P18C  -0.032 ± 0.082
142. R7V  -0.03 ± 0.043
143. R11L  -0.026 ± 0.058
144. R11S  -0.021 ± 0.059
145. W13Y  -0.007 ± 0.056
146. L9Y  -0.001 ± 0.11
147. R11I  0.004 ± 0.075
148. R7S  0.006 ± 0.078
149. W13M  0.012 ± 0.091
150. W13A  0.015 ± 0.06
151. W13Q  0.026 ± 0.052
152. R7Y  0.033 ± 0.15
153. S8K  0.048 ± 0.061
154. R11M  0.077 ± 0.065
155. L15Q  0.08 ± 0.07
156. R7I  0.083 ± 0.19
157. W13N  0.097 ± 0.081
158. R11T  0.106 ± 0.077
159. L15D  0.114 ± 0.11
160. Q16M  0.13 ± 0.1
161. L15R  0.145 ± 0.1
162. R7N  0.188 ± 0.15
163. E12N  0.23 ± 0.12
164. R7H  0.238 ± 0.49
165. Q16I  0.251 ± 0.1
166. L15A  0.358 ± 0.093
167. L15C  0.756 ± 0.27
